Assay [1] concerns the target T1, recombinant EBOV glycoprotein (EBOV (Zaire ebolavirus), UniProt Q05320 33-650).
T1 sequence: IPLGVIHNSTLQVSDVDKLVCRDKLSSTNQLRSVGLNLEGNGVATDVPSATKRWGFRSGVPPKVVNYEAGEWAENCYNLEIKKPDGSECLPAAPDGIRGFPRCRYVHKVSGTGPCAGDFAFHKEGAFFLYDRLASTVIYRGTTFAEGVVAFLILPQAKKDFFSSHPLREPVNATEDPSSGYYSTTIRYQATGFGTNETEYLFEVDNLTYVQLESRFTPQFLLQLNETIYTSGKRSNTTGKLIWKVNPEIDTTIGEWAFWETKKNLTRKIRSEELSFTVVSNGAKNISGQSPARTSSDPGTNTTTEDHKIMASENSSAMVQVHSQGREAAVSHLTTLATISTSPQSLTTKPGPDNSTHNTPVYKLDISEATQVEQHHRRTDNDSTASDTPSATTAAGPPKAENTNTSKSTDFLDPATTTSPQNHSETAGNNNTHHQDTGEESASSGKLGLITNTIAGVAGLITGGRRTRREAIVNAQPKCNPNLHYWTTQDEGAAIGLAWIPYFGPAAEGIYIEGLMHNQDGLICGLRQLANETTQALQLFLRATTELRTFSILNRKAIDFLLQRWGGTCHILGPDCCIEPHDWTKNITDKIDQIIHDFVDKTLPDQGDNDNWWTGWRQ
The assay is described as follows: ELISA, GP coated. Background: An ELISA detects its analyte on a solid surface through an enzyme-linked reagent.

Assay [2] deals with T2, recombinant TAFV glycoprotein (TAFV (Tai Forest virus), UniProt Q66810 33-650).
T2 sequence: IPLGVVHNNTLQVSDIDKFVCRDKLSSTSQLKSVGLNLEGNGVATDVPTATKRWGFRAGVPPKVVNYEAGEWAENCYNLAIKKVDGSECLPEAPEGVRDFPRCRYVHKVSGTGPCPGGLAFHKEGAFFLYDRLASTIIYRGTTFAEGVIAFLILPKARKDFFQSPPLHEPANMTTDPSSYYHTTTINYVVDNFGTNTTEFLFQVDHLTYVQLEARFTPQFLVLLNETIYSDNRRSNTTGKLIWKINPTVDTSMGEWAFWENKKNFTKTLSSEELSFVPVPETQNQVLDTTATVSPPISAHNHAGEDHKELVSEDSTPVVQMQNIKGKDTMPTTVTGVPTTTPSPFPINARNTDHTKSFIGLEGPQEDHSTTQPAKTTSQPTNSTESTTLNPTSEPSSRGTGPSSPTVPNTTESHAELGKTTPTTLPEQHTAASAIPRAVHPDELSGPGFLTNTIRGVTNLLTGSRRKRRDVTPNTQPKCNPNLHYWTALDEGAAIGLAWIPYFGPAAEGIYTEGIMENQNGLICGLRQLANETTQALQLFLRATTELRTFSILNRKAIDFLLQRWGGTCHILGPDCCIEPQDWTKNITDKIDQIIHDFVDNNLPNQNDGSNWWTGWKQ

For assay [3], the target named is T1, recombinant EBOV glycoprotein. The assay is described as follows: ELISA dose response, GP coated.
In assay [4] the target is T3, recombinant SUDV glycoprotein (SUDV (Sudan ebolavirus), UniProt Q7T9D9 33-650).
T3 sequence: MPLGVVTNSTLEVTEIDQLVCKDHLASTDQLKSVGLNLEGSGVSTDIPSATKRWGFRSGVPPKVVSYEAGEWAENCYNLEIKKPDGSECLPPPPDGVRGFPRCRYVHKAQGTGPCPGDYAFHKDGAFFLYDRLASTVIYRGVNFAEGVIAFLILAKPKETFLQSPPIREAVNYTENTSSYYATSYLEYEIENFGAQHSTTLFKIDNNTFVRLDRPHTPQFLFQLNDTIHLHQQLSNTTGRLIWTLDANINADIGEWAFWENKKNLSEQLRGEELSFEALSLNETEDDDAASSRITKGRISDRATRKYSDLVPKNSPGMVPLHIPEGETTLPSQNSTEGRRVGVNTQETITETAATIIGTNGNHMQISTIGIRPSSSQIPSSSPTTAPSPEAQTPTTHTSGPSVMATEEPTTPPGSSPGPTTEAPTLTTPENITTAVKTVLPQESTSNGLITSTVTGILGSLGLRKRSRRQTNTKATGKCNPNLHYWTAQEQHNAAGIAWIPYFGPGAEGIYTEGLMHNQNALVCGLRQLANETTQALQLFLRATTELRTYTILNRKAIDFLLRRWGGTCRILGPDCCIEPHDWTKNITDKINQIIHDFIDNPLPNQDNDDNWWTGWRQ
The assay can be described thus: ELISA dose response, GP coated.

Assay [5] deals with T4, recombinant RESTV glycoprotein (RESTV (Reston ebolavirus), UniProt Q66799 34-651).
T4 sequence: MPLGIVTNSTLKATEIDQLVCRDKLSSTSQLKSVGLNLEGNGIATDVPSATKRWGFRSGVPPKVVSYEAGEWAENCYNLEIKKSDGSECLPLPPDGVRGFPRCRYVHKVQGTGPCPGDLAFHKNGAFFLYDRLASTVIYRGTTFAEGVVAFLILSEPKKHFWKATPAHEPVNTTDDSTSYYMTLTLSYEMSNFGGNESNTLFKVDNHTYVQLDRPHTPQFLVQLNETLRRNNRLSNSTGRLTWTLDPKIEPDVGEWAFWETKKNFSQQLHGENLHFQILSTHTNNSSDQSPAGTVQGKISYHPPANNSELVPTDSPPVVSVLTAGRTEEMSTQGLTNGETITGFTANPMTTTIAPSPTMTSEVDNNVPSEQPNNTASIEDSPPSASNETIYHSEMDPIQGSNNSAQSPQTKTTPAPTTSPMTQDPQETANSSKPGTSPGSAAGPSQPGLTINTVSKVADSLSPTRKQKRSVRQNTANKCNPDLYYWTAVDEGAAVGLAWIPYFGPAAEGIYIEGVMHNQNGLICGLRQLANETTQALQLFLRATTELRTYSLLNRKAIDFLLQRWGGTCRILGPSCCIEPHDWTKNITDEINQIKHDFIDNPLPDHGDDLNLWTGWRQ
The assay can be described thus: ELISA dose response, GP coated.

Assay [6] addresses T2, recombinant TAFV glycoprotein. The assay can be described thus: ELISA dose response, GP coated.
Assay [7] addresses T5, recombinant MARV glycoprotein (MARV (marburgvirus, Ravn), UniProt Q1PDC7 19-648).
T5 sequence: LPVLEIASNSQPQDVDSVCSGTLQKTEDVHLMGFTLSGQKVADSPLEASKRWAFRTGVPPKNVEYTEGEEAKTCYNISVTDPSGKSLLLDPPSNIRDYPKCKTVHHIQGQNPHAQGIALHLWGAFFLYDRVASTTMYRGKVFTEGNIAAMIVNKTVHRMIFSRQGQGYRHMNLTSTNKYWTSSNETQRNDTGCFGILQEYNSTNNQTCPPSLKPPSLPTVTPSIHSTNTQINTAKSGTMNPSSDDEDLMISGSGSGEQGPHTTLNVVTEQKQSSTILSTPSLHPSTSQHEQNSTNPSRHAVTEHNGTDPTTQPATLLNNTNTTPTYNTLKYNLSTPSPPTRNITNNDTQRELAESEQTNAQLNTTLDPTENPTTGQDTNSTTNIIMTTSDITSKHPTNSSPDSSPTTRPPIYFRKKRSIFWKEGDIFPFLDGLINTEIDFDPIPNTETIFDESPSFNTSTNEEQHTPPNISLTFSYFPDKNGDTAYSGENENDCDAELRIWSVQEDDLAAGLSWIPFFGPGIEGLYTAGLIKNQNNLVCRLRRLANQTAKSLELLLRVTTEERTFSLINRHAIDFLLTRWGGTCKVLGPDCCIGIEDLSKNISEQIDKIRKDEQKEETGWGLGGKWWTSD
The assay is described as follows: ELISA dose response, GP coated.

The target of assay [8] is T1, recombinant EBOV glycoprotein. The assay is described as follows: maximal binding from ELISA dose-response fit.
The target of assay [9] is T3, recombinant SUDV glycoprotein. The assay can be described thus: maximal binding from ELISA dose-response fit.
Assay [10] has as its target T4, recombinant RESTV glycoprotein. The assay can be described thus: maximal binding from ELISA dose-response fit.
Assay [11] addresses T2, recombinant TAFV glycoprotein. The assay can be described thus: maximal binding from ELISA dose-response fit.
The target of assay [12] is T5, recombinant MARV glycoprotein. The assay is described as follows: maximal binding from ELISA dose-response fit.
For assay [13], the target named is T3, recombinant SUDV glycoprotein. The assay is described as follows: ELISA, GP coated.
Assay [14] deals with T4, recombinant RESTV glycoprotein. The assay can be described thus: ELISA, GP coated.
For assay [15], the target named is T2, recombinant TAFV glycoprotein. The assay can be described thus: ELISA, GP coated.
Assay [16] addresses T5, recombinant MARV glycoprotein. The assay is described as follows: ELISA, GP coated.

“And” between values parts separate entries of the source, which are not always exact repeats. Equal entries are not always repeated. Where two headings read alike, the source gives them in different places.

B1: EbovGPscFv13-1 (scFv)
scFv: MAWSHPQFEKTGSGQVQLQQSGAELVKPGASVKLSCKASGYTFTEYTIHWVKQRSGQGLEWIGWFYPGSGSIKYDEKFKDKATLTADKSSSTVYMELSRLTSEDSAVYFCARHEPYYYGSSYEGPFDYWGQGTTLTVSSGGGGSGGGGSGGGGSGGGGSSPLSVSAGEKVTMSCKSSQSLLNSGNQKNYLAWYQQKPGQPPKLLIYGASTRESGVPDRFTGSGSGTDFTLTISSVQAEDLAVYYCQNDHSYPLTFGAGTKLELKRADAAPTVSIFPPSSEQLTSGGASVVCFLNNFTHCQELQQDECS
Consider B1, for which the binding result in assay [1] was “binds”.

B2: EbovGPscFv35-2 (scFv)
scFv: MAWSHPQFEKTGSGDVKLQESGPGLVKPSQSLSLTCSVTGYSITSGYYWNWIRQFPGNKLEWMGYISYDGSNNYNPSLKNRISITRDTSKNQFFLKLNSVTTEDTATYYCARESPYYGSSHWYFGVWGTGTTVTVSSGGGGSGGGGSGGGGSGGGGSASLSASVGETVTITCRTSENIYSYLAWYQQKQGKSPQLLVYNAKTLAEGVPSRFSGSGSGTQFSLKINSLQPEDFGSYYCQHHYGIPPWTFGGGTKLEIKRADAAPTVSIFPPSSEQLTSGGASVVCFLNNFTHCQELQQDECS
For the molecule B2, the binding result in assay [1] is given as “binds”.

B3: EbovGPscFv22-1 (scFv)
scFv: MAWSHPQFEKTGSGQVQLQQPGTELVKPGASVKLSCKASGYTFTSYWMHWVKQRPGQGLEWIGNTNPSNGGTNYNEKFKSKATLTVDKSSNTAYMQLSSLTSEDSAVYYCARSVSGNFAYWGQGTLVTVSAGGGGSGGGGSGGGGSGGGGSLSLPVSLGDQASISCRSSQSLVHSNGNTYLHWYLQKPGQSPKLLIYKVSNRFSGVPDRFSGSGSGTDFTLKISRVEAEDLGVYFCSQSTHVPWTFGGGTKLEIKRADAAPTVSIFPPSSEQLTSGGASVVCFLNNFTHCQELQQDECS
B3: the EC50 (in general, the concentration that produces a half-maximal response) in assay [2] is 12 µg/mL; in assay [3], < 12 µg/mL and 7.36 µg/mL; in assay [4] it was < 12 µg/mL and 7.94 µg/mL; in assay [5], 9 µg/mL and < 12 µg/mL; in assay [6] it was 11.6 µg/mL and < 12 µg/mL; in [7] it was < 12 µg/mL and 6.58 µg/mL. For the same molecule, the Bmax signal in assay [8] was 370000 relative absorbance units; in [9] it was 280000 relative absorbance units; in assay [10], 320000 relative absorbance units; in assay [11] it was 270000 relative absorbance units; in assay [12], 250000 relative absorbance units.

B4: EbovGPscFv16-1 (scFv)
scFv: MAWSHPQFEKTGSGGAELVRSGASVKLSCTASGFNIKDDYMHWVKQRPEQGLKWIGWIDPENGDTEYASKLQGKATITADTSSNTAYLQLSSLTSEDTAVYYCARPIYYYGSSHWYFDVWGTGTTVTVSSGGGGSGGGGSGGGGSGGGGSLSLPVSLGDQASISCRSSQSLVHSNGNTYLHWYLQKPGQSPKLLIYKVSNRFSGVPDRFSGSGSGTDFTLKISRVEAEDLGVYFCSQSTHVPWTFGGGTKLEVKRADAAPTVSIFPPSSEQLTSGGASVVCFLNNFTHCQELQQDECS
On to B4, for which, in assay [1], the binding result is “binds”.

B5: EbovGPscFv27-5 (scFv)
scFv: MAWSHPQFEKTGSGQVQLQQSGAELVKPGASVKSSCTATGFNIKDYYIHWVKQRTEQGLEWIGRIDPEDGETKYAPKFQGKATITADISPNTAYLQPSSLTSEDTAVYYCTRGGYYGPWYFDVWGTGTTVTVSSGGGGSGGGGSGGGGSGGGGSASLSVSVGETVTITCRASENIYSYLAWYQQKQGKSPQLLVYNAKTLAEGVPSRFSGSGSGTQFSLKINNLQPEDFGSYYCQRHYDTPYTFGGGTKLEIKRADAAPTVSIFPPSSEQLTSGGASVVCFLNNFTHCQELQQDECS
Consider B5, for which the binding result in [13], in [14], in assay [15] and in [16] was “no binding” each time.

The values are drawn from patent US20230212268A1 (UNM RAINFOREST INNOVATIONS, published 2023).
